Publication PMC4346194 (Structure (London, England : 1993), 2015)
Changes are numbered by the printed parent chain.

Experiments:
Assay in all cases: pull-down
[1] = molecular target: GST-tagged FL-importin α7 (human, UniProt O60684 1-536)
[2] = molecular target: T1, GST-tagged FL-importin α3 (RRRR) (human, UniProt O00629 1-521, Q28R)
T1 sequence: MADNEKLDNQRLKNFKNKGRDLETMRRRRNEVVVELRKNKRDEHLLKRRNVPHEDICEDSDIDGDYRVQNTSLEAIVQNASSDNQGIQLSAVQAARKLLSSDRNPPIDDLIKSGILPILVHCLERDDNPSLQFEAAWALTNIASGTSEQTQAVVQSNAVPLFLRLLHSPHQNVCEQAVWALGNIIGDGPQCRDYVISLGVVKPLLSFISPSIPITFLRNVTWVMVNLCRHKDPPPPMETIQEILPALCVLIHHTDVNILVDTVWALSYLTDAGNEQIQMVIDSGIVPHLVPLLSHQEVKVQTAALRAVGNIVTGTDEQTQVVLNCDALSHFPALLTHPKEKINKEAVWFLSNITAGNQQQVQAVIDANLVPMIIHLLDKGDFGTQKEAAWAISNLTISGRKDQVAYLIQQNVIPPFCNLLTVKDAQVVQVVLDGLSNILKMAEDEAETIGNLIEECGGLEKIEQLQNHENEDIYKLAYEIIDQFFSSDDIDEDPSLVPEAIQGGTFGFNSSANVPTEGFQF

[3] = molecular target: GST-tagged FL-importin α1 (mouse, UniProt P52293 1-529)
[4] = molecular target: T2, GST-tagged FL-importin α3 (human, UniProt O00629 1-521)
T2 sequence: T1 sequence with R28Q

In the case of KRPAATKKAGQAKKKK [MBP-tagged nucleoplasmin NLS (NP-NLS, res. 155-170)], the “percent of importin α bound to cargo” value [1] is reported as 46%, the “percent of importin α bound to cargo” value [2] is reported as 27% and the “percent of importin α bound to cargo” value [3] is reported as 25%. For the same binder, the “percent of importin α bound to cargo” value [4] was 35%.
